From patent publication EP1034789A1

Target: human MIP-1α (human) (UniProt P10147)
Assay: 125I-MIP-1α bound to human monocytic cells, Exp. 1, 200X molar excess M-T1

Chain of UniProt P10147 (P10147 24-92 limits assumed): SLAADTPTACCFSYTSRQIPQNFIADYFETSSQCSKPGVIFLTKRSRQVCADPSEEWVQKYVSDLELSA

Question: Which Surface Bound MIP-1α does the source give for myxoma T1 protein (type-2 CBP) here?
Answer: 978 cpm
